# Measured values reported in the DeepSol protein solubility set.
# Experiment: soluble on expression in E. coli; label from the status in PepcDB or PDB records
row,Sequence,soluble on expression in E. coli
1,MPVPDLFAEGLARGWKTYNGSRLDDDLELEADVVVVGTGAGGGTTAEILSAAGLKVLLVEEGPLKTSSDFKMQEADAYPELYQEGIGRMSKDGAITILQGRAVGGTTLINWTSSFRTPEPTLQHWAQVYGVKGHSAEDMAPWFEKMEQRLHVAPWALPPNANNDVIRLGCEKLGYHWKVIPRNVLGCWNLGYCGMGCPVNAKQSMLVTTIPATLDKGGELLYLARANRLLLDGDKVTGLECLGMDERCVAPNGRRIRVRARHYVLSGGGINTPAILLRSKAPDPSQRVGKRTFLHTVNFSAGLFDRVINPFYGAPQSIYSDHFQWDDGVTGRMSYKLEVPPLQPSLASVLLGGFGSDNALRMEQLPHTNMMLALLRDGFHPDSAEGSVGLRGDDTPVLDYRMTDYTWDGIRRAFHTMAEIQFAAGAREVRPVHSDARSAKNLQEARGIIDGLRLEIYRTRLGSAHVMGGCAMGEDPAVAVADSLGRHHHLRNLSIHDGSLFPTSIGANPQLSVYGLTAQLASALAERLARALEHHHHHH,not soluble
2,MGSDKIHHHHHHMSLAVTYTRAMIGVQAPDVYIEVHISSGLPALTLVGLPETTVKEARDRVRSALINCGFTFPAKRITVNLAPADLPKEGGRYDLPIALAILAASEQIDGEKLNRYEFLGELGLSGTLRGVNGAIPAALEAIKAGRQLILPDDNKREMTLIPQGEALMAGHLLQVCAFLSGEEELLSCSDMTPVPQPAEDTLDLKDIIGQEQAKRALEIAAAGGHNLLLLGPPGTGKTMLASRLGNLMPPLSDEEALESAAINSLINIDATMTRWRARPFRAPHHSSSMAALVGGGSLPKPGEISLAHNGVLFLDELPEFERRVLDSLREPLESGEIIISRTRAKVCYPARVQLVAAMNPSPSGHYQGIHNRLPAQQILRYLSKLSGPFLDRFDLSIEVPLLPPGVLSQQHYQGESSATIRERVLIARQIQLKRANKINALLTSREIERHCKLEMADAAYLEDVMNKLGLSVRAWHRILKVARTIADLGDRDNIEKKHLAEALSYRCMDRLLIQLHKSLE,not soluble
3,MSSPSGSSRTFPQYQSGSGWNAMLPKRTPRTAAPARRHFKSLVIGAGYTGLAAARRLAELQPQDQVLVVDATVAGEGSAGRNSGFLINLPHNTRMSGHHSPLEVARKQIAMLQSGLDWLAQLSGQGGFDCGWDLAGKYHAAATADGEQSLRGALQQYGQWGVAFSELDRDALQAQLGTRYYRFGYHSMNNVFVQPAALIRGLADSLPENVWLMEDNPVLSIDGSGPYKVRTRGGEFTADNVILANNAFARRLGFLRSRLVTIFTYAGVTPVLSPAQQALLGERDQWGVIPANRLGTTLRRISGGRFMVRSAYSYEAEQPLERMEQLLRDSFVRRYPDLAAHDFEYVWSGSTGLTGNGASFVGAIQPGLYASVGCNGAGVIKGTIYGKLLGEQVAGHRSAMLDDLASFEKPNWLPPEPLRRIGALSTIAYQARKAGLEKLEHHHHHH,not soluble
4,MGHHHHHHSHMPTTSRPALDVKGGTSPAKEDANQEMSSVAYSNLAVKDRKAVAILHYPGVASNGTKASGAPTSSSGSPIGSPTTTPPTKPPSFNLHPAPHLLASMQLQKLNSQYQGMAAATPGQPGEAGPLQNWDFGAQAGGAESLSPSAGAQSPAIIDSDPVDEEVLMSLVVELGLDRANELPELWLGQNEFDFTADFPSSC,not soluble
5,MGSDKIHHHHHHMIEIGKRCTLEIVKRVDFGVYLNAHEFGQVLLPNKVAPQGCEVGDSVEVFLYLDSEDMVIATTKRPKAQVGQFAYLKAVATGPYGAFLDWGLDKDLMLPFGEQHREIEVGRSYLVYVYVNSADDRIVASSKIDKFLDRTPPPYRNGQEVSLIIAGTTDLGYKAIIDNGHWGVLYKNEVYQPLKFGQRIKGFIKRVRSDDKIDLILQRGAKEELDKHATAILMKLNQAGGFLPLTDKTDAEVIYAELAMSKKAFKKSIGGLYKQQKIAIEADGIRLTE,not soluble
6,WDPPYLQIAFDNPNLEFVLSAISEIPKSDHVIIEAGTPLIKRYGTDVISKIRQVRPDAFIVADLKTLDTGNLEARMVADAAGDAIVVSALAPISTIDKLIEEAHKTGIYAVMDTLNQQDPISVLKQLKVMPDVIELHRGIDIEGTEHAWGNIGEIKKIAPKALVAVAGGVRLDKVPVALSQGADILVVGRAITNAKDVREMAEQFINSLNK,soluble
7,HDTILFFSNKGKVYRAKGYEIPEYGRTAKGIPIINLLEVEKGEWINAIIPVTE,not soluble
8,MKKEQVEKRTYLAVDIGASSGRIMKSQRLANGQITIEEIHRFKNGFHQKDGYQRWDMASLVHELLLGLQKVKQLGIKECFIGIDTWGVDYCLLDQSGQLLDEPIAYRDGRTEAAVTNFSKGYSLEKLYQQTGIQVQPFNTIFQLFVEEKERLAAASQLLLIPDYLGYVFTGKAVIEATNASTTQLLNAGTKQWESELLDFLGIDETLFPTLVEPGTILGDLQTAAFPDYDLPNATLITIASHDTASAILGTPGIGDDWAYISSGTWSLLGIETTVTTISAEAFQENYTNEWGAQNTIRFLKNIMGMWLIQEVARHQNYQYSYAELAALAEKEPAFQQFIDVNDPRFLNPGNMITELQAYCRETQQTVPESPGELARCIYDNLALCYSVELEKLAQLTGIERKITTLHVVGGGSNNRLLNQLTADVANVTVNAGPGEAIALGNLLMQMIATGELKDIPAARTCIQTSFPTEIYQANPIDSTIKNRYQAFMKRSSL,not soluble
9,MRGSHHHHHHGMASMRILLSNDDGVHAPGIQTLAKALREFADVQVVAPDRNRSGASNSLTLESSLRTFTFDNGDIAVQMGTPTDCVYLGVNALMRPRPDIVVSGINAGPNLGDDVIYSGTVAAAMEGRHLGFPALAVSLNGYQHYDTAAAVTCALLRGLSREPLRTGRILNVNVPDLPLAQVKGIRVTRCGSRHPADKVIPQEDPRGNTLYWIGPPGDKYDAGPDTDFAAVDEGYVSVTPLHVDLTAHSAHDVVSDWLDSVGVGTQW,soluble
10,MDEEASRTARESLELVFRMSNILDTGLDRHTLSVLIALCDLGVNPEALATVVKELRRESIPDSVTTTPSIH,soluble
11,MTGMSERERQVMKKLKEVVDKQRDEIRAKDRELGLKNEDVEALQQQQTRLMKINHDLRHRVTVVEAQGKALIEQKVELEADLQTKEQEMGSLRAELGKLRERLQGEHSQNGEEEPETEPVGEESISDAEKVAMDLKDPNRPRFTLQELRDVLHERNELKSKVFLLQEELAYYKSEEMEEENRIPQPPPIAHPRTSPQPESGIKRLFSFFSRDKKRLANTQRNVHIQESFGQWANTHRDDGYTEQGQEALQHL,not soluble
12,MPHPAPNAAAPRVHIIGAGMAGLACAVRLVSHGRAVSLHEAAGQAGGRCRSFVDASLDRLIDNGNHLLLSGNRAVNAFLATIGASDRLDGPERARFPFLDVETGERWCLTPSAGPVPWWLLRADRRIPGTRARDYLEGLKLARASDADRVADLLTPGTPLYRRFWAPLTVGVLNAAPEEAAAALLWPVIKETFGRGEAACRPRMARNGLSDSFVTPALAWLTARGAEIAFNHRLRAIEYGDGRPAALVFSEETPLRLGPADQVVLAVPPAVAAGLLPGLTVPEGSRCIVNAHFRLDHAPEGFADDFEGPLGVIGGTAEWLFVRGDVASVTVSAADALAALDPDEIAARIWRDVALALGLDAAARPPVRIIKEKRATFAQTPDQLCRRPPTRPPGYGLCLAGDWTHTGLPATIEGALRSGEAAADAALHWRFTLEHHHHHH,not soluble
13,MSLNVIDTLPAFRDYCSELASSHGSLAADAERASGFRYGHEDWLVQFKRDGAGIGLLDPQALAAAGADWNDFNRAVGDAVWILHDSLQDLPGFDELGMEPQRLFDTEIAARLLGLKRFGLAAVTEHFLGLTLAKEHSAADWSYRPLPRDWRNYAALDVELLIELETKMRAELKRQGKMEWAQEEFDYALKEGLGPRKEHLIPWMHVSHITEVMRDRQALAIVRALWTRRDELAREYDIAPTLLLSDSSIIEVAKRKPHNAAQFRSIRSINERVRIHTDSEQDKMFERYAPIQRKIKPSMWKNIIQDALALPPSEWPDVDGGAARRHESQSASAPKSIRVWKERYPERLQVLNRVRKAVSQIAEDTRTPVEIVIKPQYLRNLCWTDEPRKRDVARFLSEQGARDWQVSLVAESVSRAIEGHHHHHH,not soluble
14,MRTQWPSPAKLNLFLYITGQRADGYHTLQTLFQFLDYGDTISIELRDDGDIRLLTPVEGVEHEDNLIVRAARLLMKTAADSGRLPTGSGANISIDKRLPMGGGLGGGSSNAATVLVALNHLWQCGLSMDELAEMGLTLGADVPVFVRGHAAFAEGVGEILTPVDPPEKWYLVAHPGVSIPTPVIFKDPELPRNTPKRSIETLLKCEFSNDCEVIARKRFREVDAVLSWLLEYAPSRLTGTGACVFAEFDTESEARQVLEQAPEWLNGFVAKGANLSPLHRAMLLEHHHHHH,not soluble
15,MESPLGSDLARLVRIWRALIDHRLKPLELTQTHWVTLHNIHQLPPDQSQIQLAKAIGIEQPSLVRTLDQLEDKGLISRQTCASDRRAKRIKLTEKADALIAEMEEVIHKTRGEILAGISSEEIELLIKLIAKLEHNIMELHSHD,not soluble
16,MVAEGFRLDLLLTIAQLVPSTYHYQVKQLDKPDKDKDLKAEIQAIYDEHKGNYGYRRIHLELRNRGFSVNHKKVQGLMKELGLTARIRRRKRYKSYKGDVGKKAPNLIERAFEGAKPFEKCYTDVTEFALPNCAEKLYLSPVLDGYNSEIIDFTLSRSPNLIQVKTMLEKVFPEETYPNTILHSDQGWQYQHEVYHRFLASKGIRPSMSRKGTSTDNSMMESFFGVLKTEMFYGFEKNFKSLDQLEQAITEYIFYYNNKRIKTKLKGLSPVQYRTKSFQ,not soluble
17,MNIAIGTTQDRALYEDALRVRRLVFIEEQNVPEDEEIDAFEDDSFHLVLYDGQTPVGAGRLRFIDEGVGKIERICVLPSYRGRGAGRMVMEAIEQLAKTKGAKTAKLNAQTHAEPFYQKLGYTTVSGVFMDAGIPHVTMVKSLE,soluble
18,MAPSAAVGNYGEVIDYLQRHIRREMERQDVPGLALALVDDQQLVWARGFGYADRQHRINASEHTAFHAGDLSKLLIASATLQLAERGQLSLDAPLQDTLREFYVRSRFHADQSEADRAITFRRLLSHQSGLPGEHLPPLFGERPNSLGQLPAKVSGVWLSNPPGTQVAHSNLGYELVGAAIERNTGKHFEQHMREHLLDPLQMTRSSFARNALPQAQRAHGYSGGGRPGSASDLPVNDLWSSPVDLSRFVRMLFANGRHKERQLLRKHSVEEMFRQQNAGNALDFDCQVGLAWFLSPCGSAPLEGGIRHYEYASATPGFSAHLILLPEQRLAAIVMSNADDSGSLTASLARQAASLMLQVKQGARRPAVQLEHHHHHH,not soluble
19,MGSDKIHHHHHHENDPPLSSCGIFQSRIAGDALLDSGIRISSVFASPALRCVQTAKLILEELKLEKKIKIRVEPGIFEWTKWEAGKTTPTLMSLEELKEANFNIDTDYRPAFPLSALMPAESYQEYMDRCTASMVQIVNTCPQDTGVILIVSHGSTLDSCTRPLLGLPPRECGDFAQLVRKIPSLGMCFCEENKEEGKWELVNPPVKTLTHGANAAFNWRNWISGN,not soluble
20,MYTKILGTGSYLPVQVRSNADLEKMVDTSDEWIVTRTGIRERRIAGLDETVATMGFQAAEKALEMAGIDKDDIGLIIVATTSSSHAFPSSACQVQRMLGIKDAASFDLAAACAGFTYALSVADQYVKSGAVKHAIVIGSDVLSRALDPEDRGTIILFGDGAGAVVLGASEQPGIMSTHLHADGRYGELLALPYPDRQQDQPAYVTMAGNEVFKVAVTELAHIVDETLQANNLDRTALDWLVPHQANLRIISATAKKLGMGMDKVVITLDRHGNTSAASVPSAFDEAVRDGRIQRGQLVLLEAFGGGFTWGSALVRF,not soluble
21,IKNDGLKLDAYYLPAGKATNKTVIIIHGFRRNKTGMKAYTDMFANLGYNTLTVDNRGHGKSQGHYVGFGWLDKGDVEAWIRYLISKNKNVEIVPFGISMGGATVAMMSGDSLPSNVKALIEDSGYTSVEAEITYEAKAMYNLPQKPFVSTVSLISKLFAGYSYTEASSIKQVEKNTRPMLFMHGGADSYVPTKMVYQLYNADKDPEKQLWIAPNSGHVQGFGDHPSAYTAQIKKFLNLYFK,not soluble
